Measurements from US8895245.

Assays:
[1] = test system: Biotinylated histone H3:21-44 peptide containing dimethylated K27
[2] = test system: Biotinylated histone H3:21-44 peptide containing monomethylated K27
[3] = test system: Chicken erythrocyte oligonucleosomes
[4] = test system: Biotinylated histone H3:21-44 peptide containing unmethylated K27

Substance	K (K1/2, concentration of peptide resulting in half-maximal velocity) [1]	K (K1/2, concentration of peptide resulting in half-maximal velocity) [2]	K (Km for nucleosome) [3]	K (K1/2, concentration of peptide resulting in half-maximal velocity) [4]
Recombinant five-component PRC2 complex containing Y641N mutant EZH2	157 nM	280 nM	0.191 µM	–
Recombinant five-component PRC2 complex containing Y641S mutant EZH2	136 nM	249 nM	0.137 µM	–
Recombinant five-component PRC2 complex containing Y641H mutant EZH2	148 nM	319 nM	0.14 µM	–
Recombinant five-component PRC2 complex containing Y641F mutant EZH2	191 nM	404 nM	0.176 µM	240 nM
